The assay concerns the target T1, karyopherin beta 2 (Kapβ2), endogenous (human (endogenous in HEK293), UniProt Q92973 1-898).
T1 sequence (looked up): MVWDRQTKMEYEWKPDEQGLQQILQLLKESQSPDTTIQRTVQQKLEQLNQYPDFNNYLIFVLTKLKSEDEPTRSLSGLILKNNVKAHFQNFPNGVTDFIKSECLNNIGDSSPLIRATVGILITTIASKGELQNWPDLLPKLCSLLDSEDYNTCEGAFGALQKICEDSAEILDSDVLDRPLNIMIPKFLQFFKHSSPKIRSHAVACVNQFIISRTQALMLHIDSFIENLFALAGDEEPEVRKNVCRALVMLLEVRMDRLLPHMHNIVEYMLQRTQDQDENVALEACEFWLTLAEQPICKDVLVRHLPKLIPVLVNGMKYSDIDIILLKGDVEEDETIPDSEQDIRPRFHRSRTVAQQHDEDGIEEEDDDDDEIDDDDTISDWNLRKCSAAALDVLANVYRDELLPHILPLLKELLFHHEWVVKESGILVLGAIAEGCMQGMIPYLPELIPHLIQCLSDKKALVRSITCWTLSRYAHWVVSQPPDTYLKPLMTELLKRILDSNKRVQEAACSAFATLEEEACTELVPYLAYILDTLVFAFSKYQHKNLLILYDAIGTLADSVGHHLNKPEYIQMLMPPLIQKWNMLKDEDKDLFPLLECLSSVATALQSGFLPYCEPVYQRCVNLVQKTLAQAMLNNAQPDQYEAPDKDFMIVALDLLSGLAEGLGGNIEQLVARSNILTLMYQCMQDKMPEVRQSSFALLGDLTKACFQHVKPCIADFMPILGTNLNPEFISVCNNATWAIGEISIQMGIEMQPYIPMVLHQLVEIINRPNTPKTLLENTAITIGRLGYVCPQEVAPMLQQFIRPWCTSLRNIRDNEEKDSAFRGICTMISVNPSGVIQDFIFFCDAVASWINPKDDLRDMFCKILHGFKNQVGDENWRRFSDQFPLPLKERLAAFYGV
The experiment in a line: cell-based or functional assay.

Substitutions are numbered along the chain they refer to. Names and notes keep the numbering of the source.

B1: EGFP-ULK2 WT (natural protein, human, UniProt Q8IYT8 1-1036, looked up)
chain: MEVVGDFEYSKRDLVGHGAFAVVFRGRHRQKTDWEVAIKSINKKNLSKSQILLGKEIKILKELQHENIVALYDVQELPNSVFLVMEYCNGGDLADYLQAKGTLSEDTIRVFLHQIAAAMRILHSKGIIHRDLKPQNILLSYANRRKSSVSGIRIKIADFGFARYLHSNMMAATLCGSPMYMAPEVIMSQHYDAKADLWSIGTVIYQCLVGKPPFQANSPQDLRMFYEKNRSLMPSIPRETSPYLANLLLGLLQRNQKDRMDFEAFFSHPFLEQGPVKKSCPVPVPMYSGSVSGSSCGSSPSCRFASPPSLPDMQHIQEENLSSPPLGPPNYLQVSKDSASTSSKNSSCDTDDFVLVPHNISSDHSCDMPVGTAGRRASNEFLVCGGQCQPTVSPHSETAPIPVPTQIRNYQRIEQNLTSTASSGTNVHGSPRSAVVRRSNTSPMGFLRPGSCSPVPADTAQTVGRRLSTGSSRPYSPSPLVGTIPEQFSQCCCGHPQGHDSRSRNSSGSPVPQAQSPQSLLSGARLQSAPTLTDIYQNKQKLRKQHSDPVCPSHTGAGYSYSPQPSRPGSLGTSPTKHLGSSPRSSDWFFKTPLPTIIGSPTKTTAPFKIPKTQASSNLLALVTRHGPAEEQSKDGNEPRECAHCLLVQGSERQRAEQQSKAVFGRSVSTGKLSDQQGKTPICRHQGSTDSLNTERPMDIAPAGACGGVLAPPAGTAASSKAVLFTVGSPPHSAAAPTCTHMFLRTRTTSVGPSNSGGSLCAMSGRVCVGSPPGPGFGSSPPGAEAAPSLRYVPYGASPPSLEGLITFEAPELPEETLMEREHTDTLRHLNVMLMFTECVLDLTAMRGGNPELCTSAVSLYQIQESVVVDQISQLSKDWGRVEQLVLYMKAAQLLAASLHLAKAQIKSGKLSPSTAVKQVVKNLNERYKFCITMCKKLTEKLNRFFSDKQRFIDEINSVTAEKLIYNCAVEMVQSAALDEMFQQTEDIVYRYHKAALLLEGLSRILQDPADIENVHKYKCSIERRLSALCHSTATV
As to B1, the “nuclear-to-total fluorescence ratio (Fn/t) of EGFP-ULK2 WT in HEK293 cells, confocal microscopy (Fig 3D)” value was 44.5.

B2: Uncoordinated 51-like kinase 2 (ULK2), endogenous (natural protein, human (endogenous in HEK293), UniProt Q8IYT8 1-1036, looked up)
chain: B1 chain
Regarding B2, the “nuclear-to-total fluorescence ratio (Fn/t) of endogenous ULK2 in FSK-treated HEK293 cells (normal DMEM-grown cells: 49.36+/−4.90), confocal microscopy (Fig 6Q)” value turned out to be 52.7 and the “nuclear-to-total fluorescence ratio (Fn/t) of endogenous ULK2 in H89-treated HEK293 cells (normal DMEM-grown cells: 49.36+/−4.90), confocal microscopy (Fig 6Q)” value turned out to be 35.8.

B3: EGFP-ULK2 PY-NLS mutant (P794A) (natural protein, human, UniProt Q8IYT8 1-1036, looked up)
chain: B1 chain with P794A
On to B3, for which the “nuclear-to-total fluorescence ratio (Fn/t) of the EGFP-ULK2 PY-NLS (P794A) mutant in HEK293 cells, confocal microscopy (Fig 3D)” value was 17.1.

B4: EGFP-ULK2 P242A mutant (natural protein, human, UniProt Q8IYT8 1-1036, looked up)
chain: B1 chain with P242A
As to B4, the “nuclear-to-total fluorescence ratio (Fn/t) of the EGFP-ULK2 P242A mutant in HEK293 cells, confocal microscopy (Fig 3D)” value came out at 67.2.
